Assay results reported in patent US11198713B2, “Agents modulating beta-catenin functions and methods thereof” (FOG PHARMACEUTICALS, INC., priority 2017, dated 2021).
Numbered stars: 1 amine (or outer) side, 2 acyl side, 3 side chain; on linkers, the order of the positions; unused ones are H or OH. Bridge positions count the residues as written; N and C are the ends. Square brackets hold non-standard residues; d marks the D form. Primed or numbered codes have the meaning given here. MB(4) = Monomer B (PyrS), N-Alloc pyrrolidine stapling residue, (S)-3-amino-1-(allyloxycarbonyl)pyrrolidine-3-carboxylic acid, C=CCOC(=O)N1CC[C@@](N[*:1])(C(=O)[*:2])C1; R4″ = stapling residue, (R)-2-(3-butenyl)alanine (drawn only), C=CCC[C@@](C)(N[*:1])C(=O)[*:2]; MB(3) = Monomer B = PyrS, pyrrolidine stapling residue with allyl carbamate; MI = Monomer I = ReN, acyclic amine-bearing olefin stapling residue; R7 = (R)-2-(6-heptenyl)alanine, C=CCCCCC[C@@](C)(N[*:1])C(=O)[*:2]; R6 = (R)-2-(5-hexenyl)alanine, C=CCCCC[C@@](C)(N[*:1])C(=O)[*:2]; S6 = (S)-2-(5-hexenyl)alanine, C=CCCCC[C@](C)(N[*:1])C(=O)[*:2]; MB(5) = Monomer B (PyrS), N-Alloc pyrrolidine stapling residue; R4 = (R)-2-(3-butenyl)alanine, C=CCC[C@@](C)(N[*:1])C(=O)[*:2]; MG = Monomer G = RdN, acyclic alkyl-N(Alloc) stapling residue; MC = Monomer C = PyrR, Alloc-pyrrolidine stapling residue; MA = Monomer A (Az), N-Alloc azetidine stapling residue; S7 = C[C@@](CCCCCC=[*:3])(N[*:1])C(=O)[*:2]; R8 = C=CCCCCCC[C@@](C)(N)C(=O)O; αMeL = CC(C)C[C@](C)(N)C(=O)O; R5 = C=CCCC[C@@](C)(N)C(=O)O; αMeV = CC(C)[C@](C)(N)C(=O)O; S5 = C=CCCC[C@](C)(N)C(=O)O; MB(7) = not defined here

Assays:
[1] = target: T1, full-length beta-catenin (UniProt P35222 2-781, limits assumed); test: competition FP
T1 construct: mature; also called full-length ß-Catenin; β-catenin
T1 sequence (looked up): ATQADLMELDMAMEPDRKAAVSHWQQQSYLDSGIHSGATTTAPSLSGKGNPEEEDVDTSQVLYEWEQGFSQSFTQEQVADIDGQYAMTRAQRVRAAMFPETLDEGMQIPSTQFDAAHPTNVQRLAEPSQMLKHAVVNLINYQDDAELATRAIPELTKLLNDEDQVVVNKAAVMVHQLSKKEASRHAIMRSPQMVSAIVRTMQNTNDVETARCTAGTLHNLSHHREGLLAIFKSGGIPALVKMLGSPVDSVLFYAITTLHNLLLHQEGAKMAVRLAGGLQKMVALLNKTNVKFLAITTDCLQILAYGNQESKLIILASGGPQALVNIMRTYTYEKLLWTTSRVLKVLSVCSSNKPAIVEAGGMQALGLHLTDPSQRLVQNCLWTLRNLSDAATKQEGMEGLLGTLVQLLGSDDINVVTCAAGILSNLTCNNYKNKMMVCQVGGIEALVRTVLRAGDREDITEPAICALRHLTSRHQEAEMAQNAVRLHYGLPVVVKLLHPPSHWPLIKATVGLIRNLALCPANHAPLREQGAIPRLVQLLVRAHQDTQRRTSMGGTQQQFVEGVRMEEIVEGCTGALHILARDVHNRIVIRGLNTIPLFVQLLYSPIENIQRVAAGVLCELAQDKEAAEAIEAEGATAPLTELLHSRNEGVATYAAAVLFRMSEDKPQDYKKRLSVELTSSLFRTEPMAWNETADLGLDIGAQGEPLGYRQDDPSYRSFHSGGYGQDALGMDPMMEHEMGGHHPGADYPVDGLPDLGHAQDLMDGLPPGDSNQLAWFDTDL
Protocol: (§1) In some embodiments, a competition fluorescence polarization assay is used to assess binding of provided compounds to beta-catenin. In an exemplary procedure, solutions of provided compounds, e.g., provided stapled peptides, were prepared in a buffer (e.g., 50 mM Tris pH 8.0, 250 mM NaCl, 2% glycerol, 0.5 mM EDTA, 0.02% w/v sodium azide) using a 3-fold serial dilution from 5 µM. Probe solution (15 nM full-length ß-Catenin, 20 nM FITC labeled peptide in buffer) was prepared and incubated for a period of time, e.g., 5 minutes, and the a volume, e.g., 40 µL per well plated in suitable plate, e.g., a black polystyrene 384-well plate (Corning). Equal volume of the serial diluted peptide was added to the plate and incubated protected from light for 15 minutes prior to read. Reads were performed on a Spectramax M5 (Molecular Devices) in duplicate. Suitable probe was FITC-PEG1-PQ-S5-ILD-S5-HVRRVWR (SEQ ID NO: 1) (hydrocarbon staple formed by two S5 via olefin metathesis) and/or FITC-bA-PQ-S5-ILD-S5-HVRRVWR (SEQ ID NO: 3) (hydrocarbon staple formed by two S5 via olefin metathesis). […] Another peptide, FPO217c (Ac-AR_8ILDAHIM$B5$RVW (SEQ ID NO: 280), with N-terminal proline removed and valine replaced with isoleucine compared to FP0025c) was prepared.

[2] = target: T1, full-length beta-catenin; test: competition FP, grade of FP EC50 (+: 500-5000 nM)
Protocol: as §1

[3] = target: T1, full-length beta-catenin; test: competition FP, grade of FP EC50 (++: 100-500 nM)
Protocol: as §1

[4] = target: T1, full-length beta-catenin; test: competition FP, grade of FP EC50 (+++: <=100 nM)
Protocol: as §1

B1: FP0776c (peptide)
peptide: Ac-PQ[R5]ILD[MG]HVRRVWR-NH2
modifications: staple 3-7; also: carbamate staple (-N(R')-C(O)-O-) by ring-closing olefin metathesis
In the case of B1, the EC50 [1] is reported as 570 nM and the “FP EC50” value [2] is reported as 500 to 5000 nM.

In the case of Ac-PQ[MA]ILD[R7]HVRRVWR-NH2 (staple 3-7) [FP0727c], the EC50 [1] is reported as 520 nM and the “FP EC50” value [2] is reported as 500 to 5000 nM.

Ac-PQ[R5]ILD[MA]HVRRVWR-NH2 (staple 3-7) [FP0733c] was tested, and the EC50 [1] was 920 nM and the “FP EC50” value [2] was 500 to 5000 nM.

For Ac-PQ[S6]ILD[MB(7)]HVRRVWR-NH2 (staple 3-7; reading uncertain) [FP0761c], the EC50 [1] was 460 nM and the “FP EC50” value [3] was 100 to 500 nM.

In the case of Ac-PQ[R4″]ILD[MA]HVRRVWR-NH2 (staple 3-7) [FP0731c], the EC50 [1] is reported as 4700 nM and the “FP EC50” value [2] is reported as 500 to 5000 nM.

For Ac-PQ[S7]ILD[MA]HVRRVWR-NH2 (staple 3-7) [FP0738c], the EC50 [1] was 1800 nM and the “FP EC50” value [2] was 500 to 5000 nM.

With Ac-PQ[MB(3)]ILD[S6]HVRRVWR-NH2 (staple 3-7) [FP0752c] the EC50 [1] was 2600 nM and the “FP EC50” value [2] was 500 to 5000 nM.

Ac-PQ[MB(3)]ILD[S5]HVRRVWR-NH2 (staple 3-7) [FP0751c] was tested, and the EC50 [1] was 2000 nM and the “FP EC50” value [2] was 500 to 5000 nM.

B2: FP0780c (peptide)
peptide: Ac-PQ[MH]ILD[S5]HVRRVWR-NH2
modifications: staple 3-7; also: carbamate staple (-N(R')-C(O)-O-) by ring-closing olefin metathesis
For B2, the EC50 [1] was 1700 nM and the “FP EC50” value [2] was 500 to 5000 nM.

Ac-PQ[R6]ILD[MA]HVRRVWR-NH2 (staple 3-7) [FP0735c] was tested, and the EC50 [1] was 1600 nM and the “FP EC50” value [2] was 500 to 5000 nM.

B3: FP0777c (peptide)
peptide: Ac-PQ[R5]ILD[MI]HVRRVWR-NH2
modifications: staple 3-7; also: carbamate staple (-N(R')-C(O)-O-) by ring-closing olefin metathesis
For B3, the EC50 [1] was 560 nM and the “FP EC50” value [2] was 500 to 5000 nM.

With Ac-PQ[MC]ILD[R5]HVRRVWR-NH2 (staple 3-7) [FP0743c] the EC50 [1] was 740 nM and the “FP EC50” value [2] was 500 to 5000 nM.

B4: FP0767c (peptide)
peptide: Ac-PQ[R6]ILD[MC]HVRRVWR-NH2
modifications: staple 3-7; also: carbamate staple (-N(R')-C(O)-O-) by ring-closing olefin metathesis
notes: also called R6/PR
For B4, the EC50 [1] was 110 nM and the “FP EC50” value [3] was 100 to 500 nM.

B5: FP0779c (peptide)
peptide: Ac-PQ[MF]ILD[S5]HVRRVWR-NH2
modifications: staple 3-7; also: carbamate staple (-N(R')-C(O)-O-) by ring-closing olefin metathesis
With B5 the EC50 [1] was 1300 nM and the “FP EC50” value [2] was 500 to 5000 nM.

B6: FP0783c (peptide)
peptide: Ac-PQ[MI]ILD[R5]HVRRVWR-NH2
modifications: staple 3-7; also: carbamate staple (-N(R')-C(O)-O-) by ring-closing olefin metathesis
With B6 the EC50 [1] was 990 nM and the “FP EC50” value [2] was 500 to 5000 nM.

For Ac-PQ[S7]ILD[MB(7)]HVRRVWR-NH2 (staple 3-7; reading uncertain, also called S7/PS) [FP0763c], the EC50 [1] was 115 nM and the “FP EC50” value [3] was 100 to 500 nM.

For Ac-PQ[MA]ILD[R6]HVRRVWR-NH2 (staple 3-7, also called Az/R6) [FP0725c], the EC50 [1] was 80 nM and the “FP EC50” value [4] was no more than 100 nM.

Ac-PQ[MA]ILD[S7]HVRRVWR-NH2 (staple 3-7) [FP0728c] was tested, and the EC50 [1] was 2100 nM and the “FP EC50” value [2] was 500 to 5000 nM.

For Ac-A[R8]ILDAHI[MB(5)]RV[dW]-NH2 (staple 2-9) [FP0630c], the “FP EC50” value [3] was 100 to 500 nM.

B7: FP0778c (peptide)
peptide: Ac-PQ[MD]ILD[S5]HVRRVWR-NH2
modifications: staple 3-7; not fully specified; also: carbamate staple (-N(R')-C(O)-O-) by ring-closing olefin metathesis
B7 was tested, and the EC50 [1] was 1000 nM and the “FP EC50” value [2] was 500 to 5000 nM.

Ac-PQ[MA]ILD[R5]HVRRVWR-NH2 (staple 3-7) [FP0723c] was tested, and the EC50 [1] was 1400 nM and the “FP EC50” value [2] was 500 to 5000 nM.

With Ac-PQ[MA]ILD[R4]HVRRVWR-NH2 (staple 3-7) [FP0721c] the EC50 [1] was 1300 nM and the “FP EC50” value [2] was 500 to 5000 nM.

Ac-PQ[R5]ILD[MB(3)]HVRRVWR-NH2 (staple 3-7) [FP0758c] was tested, and the EC50 [1] was 2700 nM and the “FP EC50” value [2] was 500 to 5000 nM.

In the case of Ac-PQ[S6]ILD[MA]HVRRVWR-NH2 (staple 3-7) [FP0736c], the EC50 [1] is reported as 890 nM and the “FP EC50” value [2] is reported as 500 to 5000 nM.

With Ac-A[R8]ILDAHI[MB(4)]R[αMeV]W-NH2 (staple 2-9) [FP0632c] the “FP EC50” value [3] was 100 to 500 nM.

In the case of Ac-PQ[MC]ILD[R6]HVRRVWR-NH2 (staple 3-7) [FP0745c], the EC50 [1] is reported as 110 nM and the “FP EC50” value [3] is reported as 100 to 500 nM.

In the case of Ac-PQ[MA]ILD[S5]HVRRVWR-NH2 (staple 3-7) [FP0724c], the EC50 [1] is reported as 540 nM and the “FP EC50” value [2] is reported as 500 to 5000 nM.

Ac-PQ[R4]ILD[MC]HVRRVWR-NH2 (staple 3-7, also called R4/PR) [FP0765c] was tested, and the EC50 [1] was 30 nM and the “FP EC50” value [4] was no more than 100 nM.

For Ac-PQ[R5]ILD[MC]HVRRVWR-NH2 (staple 3-7, also called R5/PR) [FP0766c], the EC50 [1] was 20 nM and the “FP EC50” value [4] was no more than 100 nM.

Ac-A[R8]I[αMeL]DAHI[MB(4)]RVW-NH2 (staple 2-9) [FP0644c] was tested, and the “FP EC50” value [3] was 100 to 500 nM.
